Measurements as given in patent US20230346885A1 (published 2023).

T1: ACTL8 peptide on HLA (human)
T1 peptide: ALDESNTYQL

T2: BRDT peptide on HLA (human)
T2 peptide: EMFPKFTEV

T3: ASCL2 peptide on HLA (human)
T3 peptide: LLAEHDAVRNA

T4: ACTL8 peptide on HLA (human)
T4 peptide: SLYASGLLTGV

T5: CALHM3 peptide on HLA (human)
T5 peptide: ALLDGKCFV

T6: ASCL2 peptide on HLA (human)
T6 peptide: LLAEHDAVRNAL

T7: ACTL8 peptide on HLA (human)
T7 peptide: RCLFQLETV

B1: TCR of SEQ ID NOs 279 and 280 (TCR, V domains shown)
Valpha: KQEVTQIPAALSVPEGENLVLNCSFTDSAIYNLQWFRQDPGKGLTSLLLIQSSQREQTSGRLNASLDKSSGRSTLYIAASQPGDSATYLCATGFQKLVFGTGTRLLVSP
Vbeta: NAGVTQTPKFQVLKTGQSMTLQCAQDMNHNSMYWYRQDPGMGLRLIYYSASEGTTDKGEVPNGYNVSRLNKREFSLRLESAAPSQTSVYFCASTLGRLLTEAFFGQGTRLTVV
B2: TCR of SEQ ID NOs 275 and 276 (TCR, V domains shown)
Valpha: KQEVTQIPAALSVPEGENLVLNCSFTDSAIYNLQWFRQDPGKGLTSLLLIQSSQREQTSGRLNASLDKSSGRSTLYIAASQPGDSATYLCAVRGYNKLIFGAGTRLAVHP
Vbeta: NAGVTQTPKFRILKIGQSMTLQCTQDMNHNYMYWYRQDPGMGLKLIYYSVGAGITDKGEVPNGYNVSRSTTEDFPLRLLSAAPSQTSVYFCASSYSPIVGAFFGQGTRLTVV
B3: TCR of SEQ ID NOs 277 and 278 (TCR, V domains shown)
Valpha: KQEVTQIPAALSVPEGENLVLNCSFTDSAIYNLQWFRQDPGKGLTSLLLIQSSQREQTSGRLNASLDKSSGRSTLYIAASQPGDSATYLCAVRGYNKLIFGAGTRLAVHP
Vbeta: NAGVTQTPKFRILKIGQSMTLQCAQDMNHNYMYWYRQDPGMGLKLIYYSVGAGITDKGEVPNGYNVSRSTTEDFPLRLELAAPSQTSVYFCASTRDTYYGYTFGSGTRLTVV
B4: TCR of SEQ ID NOs 311 and 312 (TCR, V domains shown)
Valpha: KQEVTQIPAALSVPEGENLVLNCSFTDSAIYNLQWFRQDPGKGLTSLLLIQSSQREQTSGRLNASLDKSSGRSTLYIAASQPGDSATYLCAVTGGTSYGKLTFGQGTILTVHP
Vbeta: NAGVTQTPKFRILKIGQSMTLQCTQDMNHNYMYWYRQDPGMGLKLIYYSVGAGITDKGEVPNGYNVSRSTTEDFPLRLELAAPSQTSVYFCASSYWAGVLTEAFFGQGTRLTVV
B5: TCR of SEQ ID NOs 313 and 314 (TCR, V domains shown)
Valpha: KQEVTQIPAALSVPEGENLVLNCSFTDSAIYNLQWFRQDPGKGLTSLLLIQSSQREQTSGRLNASLDKSSGRSTLYIAASQPGDSATYLCAVSNYGGSQGNLIFGKGTKLSVKP
Vbeta: NAGVTQTPKFRVLKTGQSMTLLCAQDMNHEYMYWYRQDPGMGLRLIHYSVGEGTTAKGEVPDGYNVSRLKKQNFLLGLESAAPSQTSVYFCASTHWGRDSPLHFGNGTRLTVT
B6: TCR of SEQ ID NOs 315 and 316 (TCR, V domains shown)
Valpha: KQEVTQIPAALSVPEGENLVLNCSFTDSAIYNLQWFRQDPGKGLTSLLLIQSSQREQTSGRLNASLDKSSGRSTLYIAASQPGDSATYLCAVSPRSNDYKLSFGAGTTVTVRA
Vbeta: NAGVTQTPKFRILKIGQSMTLQCTQDMNHNYMYWYRQDPGMGLKLIYYSVGAGTTDKGEVPNGYNVSRLNKREFSLRLESAAPSQTSVYFCASSATRRGDYGYTFGSGTRLTVV
B7: TCR of SEQ ID NOs 307 and 308 (TCR, V domains shown)
Valpha: KQEVTQIPAALSVPEGENLVLNCSFTDSAIYNLQWFRQDPGKGLTSLLLIQSSQREQTSGRLNASLDKSSGRSTLYIAASQPGDSATYLCAVTDSWGKLQFGAGTQVVVTP
Vbeta: NAGVTQTPKFQVLKTGQSMTLQCAQDMNHNSMYWYRQDPGMGLRLIYYSVGAGITDQGEVPNGYNVSRSTTEDFPLRLLSAAPSQTSVYFCASSRGPINYGYTFGSGTRLTVV
B8: TCR of SEQ ID NOs 309 and 310 (TCR, V domains shown)
Valpha: KQEVTQIPAALSVPEGENLVLNCSFTDSAIYNLQWFRQDPGKGLTSLLLIQSSQREQTSGRLNASLDKSSGRSTLYIAASQPGDSATYLCAVRPAGQNFVFGPGTRLSVLP
Vbeta: NAGVTQTPKFQVLKTGQSMTLQCAQDMNHNSMYWYRQDPGMGLRLIYYSASEGTTDKGEVPNGYNVSRLNKREFSLRLESAAPSQTSVYFCASSEALWGGNTEAFFGQGTRLPVV
B9: TCR of SEQ ID NOs 305 and 306 (TCR, V domains shown)
Valpha: KQEVTQIPAALSVPEGENLVLNCSFTDSAIYNLQWFRQDPGKGLTSLLLIQSSQREQTSGRLNASLDKSSGRSTLYIAASQPGDSATYLCAVRSSTDSWGKFQFGAGTQVVVTP
Vbeta: NAGVTQTPKFQVLKTGQSMTLQCAQDMNHEYMSWYRQDPGMGLRLIHYSVGAGITDQGEVPNGYNVSRSTTEDFPLRLLSAAPSQTSVYFCASSYSAGLTGELFFGEGSRLTVL
B10: TCR of SEQ ID NOs 281 and 282 (TCR, V domains shown)
Valpha: KQEVTQIPAALSVPEGENLVLNCSFTDSAIYNLQWFRQDPGKGLTSLLLIQSSQREQTSGRLNASLDKSSGRSTLYIAASQPGDSATYLCAVRGYNKLIFGAGTRLAVHP
Vbeta: NAGVTQTPKFRVLKTGQSMTLLCAQDMNHEYMYWYRQDPGMGLRLIHYSVGEGTTAKGEVPDGYNVSRLKKQNFLLGLESAAPSQTSVYFCASSFDVTEAFFGQGTRLTVV
B11: TCR of SEQ ID NOs 283 and 284 (TCR, V domains shown)
Valpha: KQEVTQIPAALSVPEGENLVLNCSFTDSAIYNLQWFRQDPGKGLTSLLLIQSSQREQTSGRLNASLDKSSGRSTLYIAASQPGDSATYLCAVKKDAGNKLTFGGGTRVLVKP
Vbeta: NAGVTQTPKFRVLKTGQSMTLLCAQDMNHEYMYWYRQDPGMGLRLIYYSASEGTTDKGEVPNGYNVSRLNKREFSLRLESAAPSQTSVYFCASSDSRRGGLLLYNSPLHFGNGTRLTVT
B12: TCR of SEQ ID NOs 285 and 286 (TCR, V domains shown)
Valpha: KQEVTQIPAALSVPEGENLVLNCSFTDSAIYNLQWFRQDPGKGLTSLLLIQSSQREQTSGRLNASLDKSSGRSTLYIAASQPGDSATYLCAVRAAGNKLTFGGGTRVLVKP
Vbeta: NAGVTQTPKFRVLKTGQSMTLLCAQDMNHEYMYWYRQDPGMGLRLIYYSASEGTTDKGEVPNGYNVSRLNKREFSLRLESAAPSQTSVYFCASSDSRRGGLLLYNSPLHFGNGTRLTVT
B13: TCR of SEQ ID NOs 325 and 326 (TCR, V domains shown)
Valpha: QKEVEQNSGPLSVPEGAIASLNCTYSDRGSQSFFWYRQYSGKSPELIMFIYSNGDKEDGRFTAQLNKASQYVSLLIRDSQPSDSATYLCAVRTPSGSARQLTFGSGTQLTVLP
Vbeta: DAGVTQSPTHLIKTRGQHVTLRCSPKSGHDTVSWYQQALGQGPQFIFQYYGEEERQRGNFPDRFSGHQFPNYSSELNVNALLLGDSALYLCASSLGAGGGHSGNTIYFGEGSWLTVV
B14: TCR of SEQ ID NOs 323 and 324 (TCR, V domains shown)
Valpha: KQEVTQIPAALSVPEGENLVLNCSFTDSAIYNFQWFRQDPGKGLTSLLLIQSSQREQTSGRLNASLDKSSGRSTLYIAASQPGDSATYLCAAHPATGANSKLTFGKGITLSVRP
Vbeta: NAGVTQTPKFQVLKTGQGMTLQCAQDMNHNSMYWYRQDPGMGLRLIYYSASEGTTDKGEVPNGYNVSRLNKREFSLRLESAAPSQTSVYFCASSEASGSNSPLHFGNGTRLTVT
B15: TCR of SEQ ID NOs 327 and 328 (TCR, V domains shown)
Valpha: GNSVTQMEGPVTLSEEAFLTINCTYTATGYPSLFWYVQYPGEGLQLLLKATKADDKGSNKGFEATYRKETTSFHLEKGSVQVSDSAVYFCAPHTDKLIFGTGTRLQVFP
Vbeta: DSGVTQTPKHLITATGQRVTLRCSPRSGDLSVYWYQQSLDQGLQFLIQYYNGEERAKGNILERFSAQQFPDLHSELNLSSLELGDSALYFCASSGGTGDGYTFGSGTRLTVV
B16: TCR of SEQ ID NOs 293 and 294 (TCR, V domains shown)
Valpha: KQEVTQIPAALSVPEGENLVLNCSFTDSAIYNLQWFRQDPGKGLTSLLLIQSSQREQTSGRLNASLDKSSGRSTLYIAASQPGDSATYLCAVRQHTGRRALTFGSGTRLQVQP
Vbeta: NAGVTQTPKFRILKIGQSMTLQCTQDMNHNYMYWYRQDPGMGLKLIYYSVGAGITDKGEVPNGYNVSRSTTEDFPLRLELAAPSQTSVYFCASSYSPENTEAFFGQGTRLTVV
B17: TCR of SEQ ID NOs 295 and 296 (TCR, V domains shown)
Valpha: KQEVTQIPAALSVPEGENLVLNCSFTDSAIYNLQWFRQDPGKGLTSLLLIQSSQREQTSGRLNASLDKSSGRSTLYIAASQPGDSATYLCAVRQHTGRRALTFGSGTRLQVQP
Vbeta: NAGVTQTPKFRILKIGQSMTLQCTQDMNHNYMYWYRQDPGMGLRLIHYSVGAGITDQGEVPNGYNVSRSTTEDFPLRLLSAAPSQTSVYFCASSYSPEADIQYFGAGTRLSVL
B18: TCR of SEQ ID NOs 297 and 298 (TCR, V domains shown)
Valpha: KQEVTQIPAALSVPEGENLVLNCSFTDSAIYNLQWFRQDPGKGLTSLLLIQSSQREQTSGRLNASLDKSSGRSTLYIAASQPGDSATYLCAVLTNDYKLSFGAGTTVTVRA
Vbeta: NAGVTQTPKFRVLKTGQSMTLLCAQDMNHEYMYWYRQDPGMGLRLIHYSVGEGTTAKGEVPDGYNVSRLKKQNFLLGLESAAPSQTSVYFCASSYSGFDSPLHFGNGTRLTVT
B19: TCR of SEQ ID NOs 287 and 288 (TCR, V domains shown)
Valpha: KQEVTQIPAALSVPEGENLVLNCSFTDSAIYNLQWFRQDPGKGLTSLLLIQSSQREQTSGRLNASLDKSSGRSTLYIAASQPGDSATYLCAVNYYNQGGKLIFGQGTELSVKP
Vbeta: NAGVTQTPKFQVLKTGQSMTLQCAQDMNHNSMYWYRQDPGMGLRLIYYSASEGTTDKGEVPNGYNVSRLNKREFSLRLESAAPSQTSVYFCASTPTYWDSYEQYFGPGTRLTVT
B20: TCR of SEQ ID NOs 291 and 292 (TCR, V domains shown)
Valpha: KQEVTQIPAALSVPEGENLVLNCSFTDSAIYNLQWFRQDPGKGLTSLLLIQSSQREQTSGRLNASLDKSSGRSTLYIAASQPGDSATYLCAVDADKLIFGTGTRLQVFP
Vbeta: NAGVTQTPKFRILKIGQSMTLQCTQDMNHEYMYWYRQDPGMGLRLIHYSVGEGTTAKGEVPDGYNVSRLKKQNFLLGLESAAPSQTSVYFCASREVGRDEHFFGPGTRLTVL
B21: TCR of SEQ ID NOs 289 and 290 (TCR, V domains shown)
Valpha: KQEVTQIPAALSVPEGENLVLNCSFTDSAIYNLQWFRQDPGKGLTSLLLIQSSQREQTSGRLNASLDKSSGRSTLYIAASQPGDSATYLCAVDSSGSRLTFGEGTQLTVNP
Vbeta: NAGVTQTPKFQVLKTGQSMTLQCAQDMNHEYMYWYRQDPGMGLRLIHYSVGAGITDQGEVPNGYNVSRSTTEDFPLRLLSAAPSQTSVYFCASRLLGGSGYTFGSGTRLTVV

Target: T1, ACTL8 peptide on HLA
Assay: binding, other

Binding result, recognises:
B1, B2, B3

Target: T2, BRDT peptide on HLA
Assay: binding, other

Binding result, recognises:
B4, B5, B6

Target: T3, ASCL2 peptide on HLA
Assay: binding, other

Binding result, recognises:
B7, B8, B9

Target: T4, ACTL8 peptide on HLA
Assay: binding, other

Binding result, recognises:
B10, B11, B12

Target: T5, CALHM3 peptide on HLA
Assay: binding, other

Binding result, recognises:
B13, B14, B15

Target: T6, ASCL2 peptide on HLA
Assay: binding, other

Binding result, recognises:
B16, B17, B18

Target: T7, ACTL8 peptide on HLA
Assay: binding, other

Binding result, recognises:
B19, B20, B21
